B1: 03F01R3 His-tagged VHH (VHH)
VHH: QVQLVESGGGLVQAGESLRLSCAASGDVFDIGTMAWYRQPPGKQRELVASITMGGSTDVADSAKGRFTISRDNAKNTVYLHMDSLKPEDTAVYYCNAQFFWPKRHDYWGQGTQVTVSS
B2: 01C09R3 His-tagged VHH (VHH)
VHH: EVQLVESGGGLVQAGGSLRLSCAASGFTFRTYYMGWFRQAPGKEREFVGVTRSSDDVTYYADSVKGRFTISRDNAKNTVYLQMSRLKPEDTAVYYCAAKPVPITRYSFPQIGEEYDYWGQGTLVTVSS
B3: 02B09R3 His-tagged VHH (VHH)
VHH: EVQLVESGGGLVQPGGSLRLSCAASGFTFRTYYMGWFRRAPGKEREFVGVTRSSDDVTYYADSVKGRFTISRDNAKDTVYLQMSRLKPEDTAVYYCAAKPVPITRYSFPQIGEEYDYWGQGTLVTVSS
B4: 01B04R2 His-tagged VHH (VHH)
VHH: EVQLVESGGGLVQAGGSLRLSCAASGRTFTSYTMGWFRQAPGKEREFVAAIKWNGGSTYYADSVKGRFTISRDNAKNTVYLQMNSLKPEDTAVYYCAADGDPYFSPTDGIVWHAPHQSEYDYWGQGTLVTVSS
B5: 03D12R3 His-tagged VHH (VHH)
VHH: QVQLVESGGGLVQAGGSLRLSCAASGRTFSSYAMGWFRQAPGKEREFAAVITWNGGSTHYADSVKGRFTISRDNAKNTVYLQMNSLKPEDTAVYYCAADPMNSPYWGQGTQVTVSS
B6: 01D08R3 His-tagged VHH (VHH)
VHH: QVQLVESGGGLVQAGDSLRLSCAASGRTSSLYNMGWFRQAPGQEREFVAAIHWGGGRTYYADSVKGRFTISRDNAKNTVYLQMNSLEPGDTANYYCAARRAPELLDDYKQKPEEIGAYHYWGQGTQVTVSS
B7: 03H01R3 His-tagged VHH (VHH)
VHH: EVQLVESGGGLVQAGGSLRLSCAASGRTSSIYNMGWFRQAPGQEREFVAAIHWGGGRTYYADSVKGRFTISRDNAKNTVYLQMNSLEPGDTANYYCAARRAPELLDDYKQKPEEIGTYHYWGQGTQVTVSS
B8: 03D09R3 His-tagged VHH (VHH)
VHH: QVQLVESGGGLVQAGGSLRLSCAASGRTVSSVAMGWFRQAPGKEREFVATISWTGGSTYYADSVKGRFTISRDNAKNTAYLQMNSLKPEDTAVYYCAAGYPADPIALMTLRYEYDYWGQGTLVTVSS
B9: 01B02R2L His-tagged VHH (VHH)
VHH: EVQLVESGGGLVQAGGSLKLACAASGLTFSSYRMGWFRQAPGKEREFVAAIDWNGRGTYYRYYADSVKGRFTISRDNAKNTMCLQMNSLKPEDTAVYYSAIDSRTSIDPRTSGHYRYWGQGTLVTVSS
B10: 03D02R3 His-tagged VHH (VHH)
VHH: EVQLVESGGGLAQAGGSLRLSCTASGTISKIDVMAWYRQTPGNERELVARIFSNDVTHYVDSAKGRFTLSRAQDKNTVDLQMNSLEPDDAAVYYCNAQIWSDMRGRMDTYWGQGTLVTVSS
B11: 01B08R2 His-tagged VHH (VHH)
VHH: EVQLVESGGRLVQAGGSLRLSCAASGLTRSDYAMGWFRQAPGKEREFVATLKWSEGSRFMYRAEDVKGRFTISSGAAKTTVWLDMDALNPEDTAVYYCAAGFNVGFVRRASEYNFWGQGTLVTVSS
B12: 01D05R2LS His-tagged VHH (VHH)
VHH: EVQLVESGGGLVQTGGSLRLSCAASGRTFSPYAMGWFRQAPGKEREFVAAIRWSGATTYKYVGDSVQGRFTISRDAAGNTVYLQMNSVKPEDTAVYYCAADRVPKDISIDPRNPKDWDYWGKGTLVTVSS
B13: 01H01R2LS His-tagged VHH (VHH)
VHH: EVQLVESGGGLVQTGGSLRLSCAASGRTFSPYAMGWFRQAPGKEREFVAAIRWSGATTYKYVGGSVQGRFTISRDAAGNTVYLQMNSVKPEDTAVYYCAADRVPKDISIDPRNPKDWDYWGKGTQVTVSS
B14: 01B06R2LS His-tagged VHH (VHH)
VHH: QVQLVESGGGLVQTGGSLRLSCAASGRTFSPYAMGWFRQAPGKEREFVAAIRWSGATTYKYVGDSVQGRFTISRDAAGNTVYLQMNSVKPEDTAVYYCAADRVPKDISIDPRNPKDWDYWGKGTLVTVSS
B15: 01C09R3LS His-tagged VHH (VHH)
VHH: EVQLVESGGGLVQAGGSLRLSCAASGRTINTYVMGWFRQAPGKEREFVARIDWSGSSTDYADSVKGRFTISRDNAKNTVYLQMNSLKPEDTAVYYCAGSAYYSGYVTHRDFGSWGQGTQVTVSS
B16: 01B12R3LS His-tagged VHH (VHH)
VHH: EVQLVESGGGLVQAGGSLRLSCAASGRTINGYVMGWFRQAPGKEREFVARIDWSGSSTDYADSVKGRFTISRDNAKTTVYLQMNSLKPEDTAVYYCAGSAYYSGYVTHRDFGSWGQGTQVTVSS
B17: 01C05R3LS His-tagged VHH (VHH)
VHH: EVQLVESGGGLVQAGGSLRLSCAASGRTINTYVMGWFRQAPGKEREFVARIDWSGSSTDYADSVKGRFTISRDNAKNTVYLQMNSLKPEDTAVYYCAGSAYYSGYVTHRDFGSWGQGTLVTVSS
B18: 01D07R3LS His-tagged VHH (VHH)
VHH: QVQLVESGGGLVQAGGSLRLSCAASGRTINTYVMGWFRQAPGKEREFVARIDWSGSSTDYADSVKGRFTISRDNAKNTVYLQMNSLKPEDTAVYYCAGSAYYSGYVTHRDFGSWGQGTLVTVSS
B19: 01B10R3LS His-tagged VHH (VHH)
VHH: QVQLVESGGGLVQAGGSLRLSCAASGRTIYGYVMGWFRQAPGKEREFVARIDWSGSSTDYADSVKGRFTISRDNAKNTVYLQMNSLKPEDTAVYYCAGSAYYSGYVTHRDFGSWGQGTQVTVSS
B20: 01B07R2L His-tagged VHH (VHH)
VHH: EVQLVESGGGLVQAGGSLRLSCAASGRTFSSDAVGWFRQAPGKEREFVAHIHWSGDFTTYYYYGDFVKGRFTISRGTAKNTVYLQMNSLKPEDTAVYYCAAPKGAIGDPRSTREYDYWGQGTLVTVSS
B21: 03G05R3 His-tagged VHH (VHH)
VHH: EVQLVESGGGLVQAGDSLRLSCAASGRALSFNTYAMAWFRQAPGKEREFVASITYNGGSTYYADSVKGRFTVTRDNGKNTVTLRMNSLKPDDTAVYYCASAQYWRSGTSFPANYWGQGTQVTVSS
B22: 01F04R3 His-tagged VHH (VHH)
VHH: QVQLVESGGGLVQAGDSLRLSCAASGRALSFNTYAMAWFRQAPGKEREFVASITYNGGSTYYADSVRGRFTVTRDSGKNTVTLRMNSLKPDDTAVYYCASAQYWRSGTSFPANYWGQGTLVTVSS
B23: 03G07R3 His-tagged VHH (VHH)
VHH: EVQLVESGGGLVQAGDSLRLSCAASGRTLSFDTYAMAWFRQAPGKEREFVASIDYNGGSTDYADSVKGRFTVTRDNAKNTVTLRMNSLKPDDTAVYYCASARYYRSGTSFPVNYWGQGTQVTVSS
B24: 01C04R3 His-tagged VHH (VHH)
VHH: QVQLVESGGGLVQAGDSLRLSCAASGRALSFNTYAMAWFRQAPGKEREFVASITYNGGSTYYADSVKGRFTVTRDNGKDTVTLRMNSLKPDDTAVYYCASAQYWRSGTSFPANYWGQGTLVTVSS
B25: 01D06R2 His-tagged VHH (VHH)
VHH: QVQLVESGGGLVQAGDSLRLSCAASGRTLSFDTYAMAWFRQAPGKEREFVASIDWNGVNTYYADSVKGRFTVTRDNTKNTVTLRMNSLKTDDTAVYYCAAAQYYRSGTSFPANSWGQGTQVTVSS
B26: 01B04R3L His-tagged VHH (VHH)
VHH: EVQLVESGGGLVQAGDSLRLSCAASGRTFTTYVMGWFRQAPGKEREFVATIAWSGSTNYKYYADSVKGRFTISRDNAKNTVYLRMNSLKPEDTAVYYCAASTVLTDPRRLNEYANWGQGTLVTVSS
B27: 01A06R3LS His-tagged VHH (VHH)
VHH: EVQLVESGGGVVQAEDSLRLSCAASGLPFSSSRMGWFRQAPGKEREFVAAIGWSGRSTYKYYADSVKGRFTVSGDNAKKTLDLQMKDLKPEDTAVYYCAAHPDYYGDPRTSGAYRYWGQGTQVTVSS
B28: 01B07R3L His-tagged VHH (VHH)
VHH: EVQLVESGGGVVQAEDSLRLSCAASGLPFSSSRMGWFRQVPGKEREFVAAIGWSGRSTYRYYDDSVKGRFTVSGDNAKNTLDLQMKGLKPEDTAVYYCAADPNYYGDVRTSGTYQYWGQGTQVTVSS
B29: 01A02R3 His-tagged VHH (VHH)
VHH: EVQLVESGGGLVQSGGSLRLSCAASGRTFDQFTVGWFRQAPGKEREFVTAIRWSGSTTYRYYADSVKGRFTISRDNARNTVDLQMNSLKPEDSAVYYCAGQMSQWSDPRGDDYDSWGQGTLVTVSS

The text below walks through data of patent US20220112276A1 (Janssen / Centocor, published 2022).

The target in the assay is T1, recombinant human pIgR (hpIgR) (human, UniProt P01833 19-638, limits assumed).
T1 construct: probably the ECD
T1 sequence (P01833 19-638 limits assumed): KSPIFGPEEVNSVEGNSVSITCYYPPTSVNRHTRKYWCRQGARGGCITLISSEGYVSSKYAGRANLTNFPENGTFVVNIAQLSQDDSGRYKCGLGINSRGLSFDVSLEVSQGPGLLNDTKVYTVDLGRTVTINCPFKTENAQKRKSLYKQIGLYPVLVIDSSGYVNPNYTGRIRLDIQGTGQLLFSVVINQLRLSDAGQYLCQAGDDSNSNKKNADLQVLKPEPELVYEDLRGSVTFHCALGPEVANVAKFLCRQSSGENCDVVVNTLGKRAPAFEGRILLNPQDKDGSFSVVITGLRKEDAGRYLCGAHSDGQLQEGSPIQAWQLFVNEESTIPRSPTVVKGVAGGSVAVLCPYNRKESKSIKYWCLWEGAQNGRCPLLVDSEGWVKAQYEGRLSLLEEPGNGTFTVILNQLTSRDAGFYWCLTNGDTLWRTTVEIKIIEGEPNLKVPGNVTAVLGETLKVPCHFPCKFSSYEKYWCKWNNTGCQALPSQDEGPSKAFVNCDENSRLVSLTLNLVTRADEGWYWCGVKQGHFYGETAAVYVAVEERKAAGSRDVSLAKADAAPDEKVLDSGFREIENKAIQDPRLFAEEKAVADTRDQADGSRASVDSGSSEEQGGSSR
In words: ELISA, periplasmic VHH, BSA subtracted. The method, then:
Initial Library Screening: After each panning round showing enrichment, 94 individual clones were expressed and tested in an off-phage initial screen for specific binding to mpIgR or hpIgR (respectively depending on the antigen used). Screening of monoclones in an off-phage format was performed by transforming the phagemid pool into a non-amber-suppressor strain of E. coli and picking random colonies. The VHH proteins were recovered in the periplasmic fraction by performing osmotic shock. Periplasmic fractions containing His-tagged nanobodies were tested for binding to hpIgR or mpIgR. Bound nanobody was detected with a polyclonal anti-alpaca VHH domain antibody. Each clone was also tested for non-specific binding to BSA in parallel. The ELISA values obtained on BSA were subtracted from the ELISA values obtained on the respective pIgR antigen.
Repeat Testing of Positive Hits: The hits identified in the initial screen of the phage pools were re-tested for binding to either hpIgR or mpIgR. Periplasmic fractions were prepared again by performing osmotic shock. Periplasmic fractions containing His-tagged nanobodies were tested for binding to mpIgR. In this assay, bound nanobody was detected with an anti-VHH antibody. Each clone was also tested for non-specific binding to BSA in parallel. The ELISA values obtained on BSA were subtracted from the ELISA values obtained on the respective pIgR antigen.
A general note: ELISA stands for enzyme-linked immunosorbent assay.
As to B1, the “ELISA (OD)” value came out at 1.97 OD.

On to B2, for which the “ELISA (OD)” value came out at 1.29 OD.

With B3, the “ELISA (OD)” value came out at 1.13 OD.

Regarding B4, the “ELISA (OD)” value stood at 2.16 OD.

Consider B5, for which the “ELISA (OD)” value stood at 2.27 OD.

For the molecule B6, the “ELISA (OD)” value came out at 2.11 OD.

Regarding B7, the “ELISA (OD)” value was determined as 2.07 OD.

Turning to B8, the “ELISA (OD)” value is 1.82 OD.

Turning to B9, the “ELISA (OD)” value is 1.94 OD.

With B10, the “ELISA (OD)” value stood at 2.07 OD.

For B11, the “ELISA (OD)” value was determined as 1.94 OD.

For the molecule B12, the “ELISA (OD)” value turned out to be 2.41 OD.

As for B13, the “ELISA (OD)” value came out at 1.17 OD.

B14: the “ELISA (OD)” value stood at 1.9 OD.

Turning to B15, the “ELISA (OD)” value came to 1.64 OD.

As for B16, the “ELISA (OD)” value was found to be 2.17 OD.

In the case of B17, the “ELISA (OD)” value amounted to 1.89 OD.

As for B18, the “ELISA (OD)” value turned out to be 2.07 OD.

Turning to B19, the “ELISA (OD)” value came out at 1.91 OD.

On to B20, for which the “ELISA (OD)” value was determined as 0.67 OD.

With B21, the “ELISA (OD)” value was 1.92 OD.

For B22, the “ELISA (OD)” value was 1.83 OD.

On to B23, for which the “ELISA (OD)” value worked out at 1.92 OD.

Take B24: the “ELISA (OD)” value came to 2.33 OD.

With B25, the “ELISA (OD)” value stood at 0.5 OD.

With B26, the “ELISA (OD)” value turned out to be 2.12 OD.

In the case of B27, the “ELISA (OD)” value was found to be 1.95 OD.

With B28, the “ELISA (OD)” value came to 2.29 OD.

On to B29, for which the “ELISA (OD)” value was found to be 1.98 OD.
